This note sets out measurements from paper PMC4837482, “The complex binding mode of the peptide hormone H2 relaxin to its receptor RXFP1” (Nature Communications, 2016).

What all share (assay): cAMP activity assay (pCRE β-galactosidase reporter), transfected HEK293T cells
Format in all cases: cell-based

Assay [1] has as its target T1, RXFP1 F54A (Homo sapiens, UniProt Q9HBX9, F76A).
T1 construct: cells expressing full-length RXFP1 and mutants; expressed in transfected cells; host or cells: HEK293T
T1 sequence (Q9HBX9 23-757 F76A limits assumed): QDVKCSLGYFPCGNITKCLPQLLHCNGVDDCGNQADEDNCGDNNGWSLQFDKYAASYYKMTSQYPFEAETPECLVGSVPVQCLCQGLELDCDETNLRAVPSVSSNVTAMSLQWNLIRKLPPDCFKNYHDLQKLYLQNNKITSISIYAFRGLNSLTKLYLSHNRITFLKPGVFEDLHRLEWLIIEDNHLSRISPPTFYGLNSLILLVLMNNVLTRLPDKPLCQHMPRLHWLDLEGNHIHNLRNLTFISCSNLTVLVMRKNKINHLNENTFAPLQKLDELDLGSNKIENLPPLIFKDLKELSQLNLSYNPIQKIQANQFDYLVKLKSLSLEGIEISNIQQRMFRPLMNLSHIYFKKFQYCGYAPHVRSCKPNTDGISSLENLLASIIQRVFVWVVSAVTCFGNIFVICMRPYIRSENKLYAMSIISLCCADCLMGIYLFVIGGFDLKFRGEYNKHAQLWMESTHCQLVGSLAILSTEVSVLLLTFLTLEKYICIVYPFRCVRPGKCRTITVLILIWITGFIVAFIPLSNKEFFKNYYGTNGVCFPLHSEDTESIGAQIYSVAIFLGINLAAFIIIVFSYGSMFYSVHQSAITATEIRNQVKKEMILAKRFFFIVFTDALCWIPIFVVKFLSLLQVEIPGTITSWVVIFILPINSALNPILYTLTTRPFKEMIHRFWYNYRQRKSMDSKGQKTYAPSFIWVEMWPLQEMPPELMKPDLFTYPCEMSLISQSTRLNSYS
The conditions noted are these: construct F54A, ±s.e.m. In a few lines: (§1)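 HEK293T cells transfected with mutant RXFP1 and pCRE β-galactosidase reporter, stimulated with H2 relaxin in minimal media/1% DMSO. β-Galactosidase read with chlorophenol red-β-D-galactopyranoside at 570 nm; responses pooled from ≥3 triplicate experiments as % of 5 μM forskolin maximum.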

For assay [2], the target named is T2, RXFP1 F54A/Y58A (Homo sapiens, UniProt Q9HBX9, F76A/Y80A).
T2 construct: cells expressing full-length RXFP1 and mutants; expressed in transfected cells; host or cells: HEK293T
T2 sequence (Q9HBX9 23-757 F76A/Y80A limits assumed): T1 sequence (Q9HBX9 23-757 F76A limits assumed) with Y58A
Particulars: construct F54A/Y58A, ±s.e.m. In a few lines:
as §1

Assay [3] has as its target T3, RXFP1 N43A (Homo sapiens, UniProt Q9HBX9, N65A).
T3 construct: transiently transfected human embryonic kidney (HEK) 293T cells expressing full-length RXFP1 and mutants; expressed in transfected cells; host or cells: HEK293T
T3 sequence (Q9HBX9 23-757 N65A limits assumed): T1 sequence (Q9HBX9 23-757 F76A limits assumed) with N43A, A54F
Particulars: construct N43A, ±s.e.m. In a few lines:
as §1

[4] abbreviates: percentage of maximum response to 5 μM Forskolin.

Where a chain is given by its changes, count along the chain named.

As to “H2 relaxin: two-chain 6-kDa peptide hormone structurally related to insulin; recombinant human gene-2 H2 relaxin provided by Corthera”, the “H2 relaxin pEC50” value in assay [1] (cAMP reporter) is recorded as 10.23±0.13 (4); in assay [2] (cAMP reporter), 9.87±0.08 (5)***^,#,θ; in assay [3] (cAMP reporter), 9.06±0.48 (4). In addition, the “H2 relaxin Emax” value in assay [1] (setting [4]) is given as 104.89±10.48 (4) %; in assay [2] (setting [4]), 99.94±2.19 (5) %; in assay [3] (setting [4]), 120.23±7.81 (4) %.
